*1 amine or outer side, *2 acyl side, *3 side chain or, on linkers, in order; H or OH if unused. Primed or numbered codes have the meaning given here. [ ]: non-standard residue; d: D form. The star is where a group is joined. βAsp = O=C(O)[C@H](CC(=O)[*:2])N[*:1]; Met(O) = CS(=O)CC[C@H](N)C(=O)O; Hexenoyl(3E) = CC/C=C/CC(=O)*; Asu′ = not defined here

T1: human GRF receptor (human, UniProt Q02643 23-423)
T1 sequence (looked up): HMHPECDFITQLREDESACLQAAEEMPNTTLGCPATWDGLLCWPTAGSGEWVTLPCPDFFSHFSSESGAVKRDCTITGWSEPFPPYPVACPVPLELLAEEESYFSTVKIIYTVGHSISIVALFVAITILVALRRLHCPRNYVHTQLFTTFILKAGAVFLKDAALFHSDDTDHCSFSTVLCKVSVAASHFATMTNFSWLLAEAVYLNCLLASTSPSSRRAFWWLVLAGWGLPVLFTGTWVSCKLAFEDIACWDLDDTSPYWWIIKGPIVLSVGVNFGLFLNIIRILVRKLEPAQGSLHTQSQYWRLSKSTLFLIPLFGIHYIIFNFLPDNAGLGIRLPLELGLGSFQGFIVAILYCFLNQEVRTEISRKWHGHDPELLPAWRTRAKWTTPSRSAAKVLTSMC

In the experiment the target is T1, human GRF receptor. Nature of the experiment: cell-based or functional assay.
As for {Hexenoyl(3E)}-YA[Asu′]AIFTNSYRKVLGQLSARKLLQDIMSRQQGESNQERGARARL-NH2 (reading uncertain) [TH9507 cyclic form at Asp^3], the “EC50 (nM), alkaline phosphatase reporter gene assay” value (“EC50 (nM)” for short) worked out at 0.2 nM; the “EMAX (%), alkaline phosphatase reporter gene assay” value was determined as 95.7%; the “SNR (signal to noise ratio), alkaline phosphatase reporter gene assay” value was 21.3.

{Hexenoyl(3E)}-YADAIFTDSYRKVLGQLSARKLLQDIMSRQQGESNQERGARARL-NH2 [TH9507 Asp8]: the EC50 (nM), alkaline phosphatase reporter gene assay came out at 0.08 nM; the EMAX (%), alkaline phosphatase reporter gene assay amounted to 114%; the SNR (signal to noise ratio), alkaline phosphatase reporter gene assay is 25.3.

With {Hexenoyl(3E)}-YADAIFTNSYRKVLGQLSARKLLQDIMSRQQGESNQERGARARL-NH2 [[trans-3-hexenoyl]hGHRH (1-44) amide], the “EC50 (nM)” value is 0.06 nM.

For the molecule {Hexenoyl(3E)}-YADAIFT[βAsp]SYRKVLGQLSARKLLQDIMSRQQGESNQERGARARL-NH2 [TH9507 beta-Asp8], the EC50 (nM), alkaline phosphatase reporter gene assay was 30 nM; the EC50 fold higher than TH9507, reporter gene assay is 500 fold; the EMAX (%), alkaline phosphatase reporter gene assay was 120%; the SNR (signal to noise ratio), alkaline phosphatase reporter gene assay came to 26.9.

As for {Hexenoyl(3E)}-YADAIFTNSYRKVLGQLSARKLLQDI[Met(O)]SRQQGESNQERGARARL-NH2 [N-Hex-hGRF[1-44]Met[O]27 amide], the “EC50 (nM)” value was 0.16 nM.

For the molecule {Hexenoyl(3E)}-YA[βAsp]AIFTNSYRKVLGQLSARKLLQDIMSRQQGESNQERGARARL-NH2 [TH9507 beta-Asp3], the “EC50 (nM)” value is 4.24 nM and the “EMAX (%), alkaline phosphatase reporter gene assay” value is 116%.
